Here are results for 9 molecules from patent publication US6861257B1, “Methods for isolation of osteoclast precursor cells and inducing their differentiation into osteoclasts” (Shionogi & Co., Ltd., priority 1998, dated 2005).

The test system of assay [1] is preosteoclasts. The following applies: differentiation requiring the presence of accessory cells; cited from earlier work.
The subject of assay [2] is preosteoclasts. Put plainly: Induction of differentiation of preosteoclasts (from joint fluid of rheumatoid arthritis patients) into osteoclasts in the absence of accessory cells. It counts as cell-based. The following applies: cytokine in place of human T-STIM in the medium, 37° C., 48-96 hours, no accessory cells. The method, then:
The obtained cellular fraction was cultured in DMEM medium (Gibco BRL, #12430-21 or equivalent) supplemented with 10% (v/v) of fetal calf serum (FCS) in 5-7% CO2-containing air at 37° C. for several weeks. […]
Human T-STIM contains a variety of cytokines. In order to identify the cytokine which stimulates differentiation of preosteoclasts into osteoclasts, the differentiation was examined by modifycation the contents of Medium A described as previously in Example 1(3).
The following 16 kinds of medium (B-R) were prepared by using the cytokines shown below, alone or a mixture thereof, instead of human T-STIM contained in Medium A (Example 1(3)). […] Recombinant baculovirus containing the sequence was prepared to infect insect cells, then the recombinant eotaxin-3 protein was purified from the culture supernatant.)
The preosteoclasts obtained by Example 1(2) were cultured in the Medium […] described above at 37° C. for 48-96 hours.

“Also recorded” adds a separate entry of the source.

For “IL-6: recombinant human IL-6 (R & D Systems)”, the “induction of the differentiation of preosteoclasts into osteoclasts” value with preosteoclasts [1] is reported as “induce the differentiation of preosteoclasts into osteoclasts”. Further, the “ability for inducing the differentiation of preosteoclasts” value (“ability for inducing the differentiation” below) in the assay with preosteoclasts [2] was “do not have an ability for inducing the differentiation of preosteoclasts; also recorded: does not effect to the differentiation”.

Regarding “eotaxin: recombinant human eotaxin (R & D Systems)”, the “ability for inducing the differentiation” value in the assay on preosteoclasts [2] is recorded as “have an ability for inducing the differentiation of preosteoclasts”.

For the molecule “GM-CSF: recombinant human GM-CSF (R & D Systems)”, the “ability for inducing the differentiation” value in the assay with preosteoclasts [2] is reported as “have an ability for inducing the differentiation of preosteoclasts”.

B1: IL-4: recombinant human IL-4 (Genzyme) (protein, UniProt P05112 25-153, looked up)
Interleukin-4: HKCDITLQEIIKTLNSLTEQKTLCTELTVTDIFAASKNTTEKETFCRAATVLRQFYSHHEKDTRCLGATAQQFHRHKQLIRFLKRLDRNLWGLAGLNSCPVKEANQSTLENFLERLKTIMREKYSKCSS
As for B1, in the assay on preosteoclasts [2], the “ability for inducing the differentiation” value is “do not have an ability for inducing the differentiation of preosteoclasts”.

B2: eotaxin-2: recombinant human eotaxin-2 (R & D Systems) (protein, UniProt O00175 27-119, looked up)
C-C motif chemokine 24: VVIPSPCCMFFVSKRIPENRVVSYQLSSRSTCLKAGVIFTTKKGQQFCGDPKQEWVQRYMKNLDAKQKKASPRARAVAVKGPVQRYPGNQTTC
For the molecule B2, the “ability for inducing the differentiation” value in the assay on preosteoclasts [2] is “have an ability for inducing the differentiation of preosteoclasts”.

B3: eotaxin-3: human CC type chemokine, amino acid sequence SEQ ID No.:2; recombinant protein from baculovirus-infected insect cells (protein, listed as Homo sapiens)
chain: MMGLSLASAVLLASLLSLHLGTATRGSDISKTCCFQYSHKPLPWTWVRSYEFTSNSCSQRAVIFTTKRGKKVCTHPRKKWVQKYISLLKTPKQL
Turning to B3, the “ability for inducing the differentiation” value with preosteoclasts [2] is “have an ability for inducing the differentiation of preosteoclasts”.

B4: IL-11: recombinant human IL-11 (R & D Systems) (protein, UniProt P20809 22-199, looked up)
Interleukin-11: PGPPPGPPRVSPDPRAELDSTVLLTRSLLADTRQLAAQLRDKFPADGDHNLDSLPTLAMSAGALGALQLPGVLTRLRADLLSYLRHVQWLRRAGGSSLKTLEPELGTLQARLDRLLRRLQLLMSRLALPQPPPDPPAPPLAPPSSAWGGIRAAHAILGGLHLTLDWAVRGLLLLKTRL
Consider B4, for which the “induction of the differentiation of preosteoclasts into osteoclasts” value in the assay with preosteoclasts [1] was “induce the differentiation of preosteoclasts into osteoclasts”. In addition, the “ability for inducing the differentiation” value in the assay on preosteoclasts [2] is “do not have an ability for inducing the differentiation of preosteoclasts; also recorded: does not effect to the differentiation”.

B5: M-CSF: recombinant human M-CSF (R & D Systems) (protein, UniProt P09603 33-554, looked up)
Macrophage colony-stimulating …: EEVSEYCSHMIGSGHLQSLQRLIDSQMETSCQITFEFVDQEQLKDPVCYLKKAFLLVQDIMEDTMRFRDNTPNAIAIVQLQELSLRLKSCFTKDYEEHDKACVRTFYETPLQLLEKVKNVFNETKNLLDKDWNIFSKNCNNSFAECSSQDVVTKPDCNCLYPKAIPSSDPASVSPHQPLAPSMAPVAGLTWEDSEGTEGSSLLPGEQPLHTVDPGSAKQRPPRSTCQSFEPPETPVVKDSTIGGSPQPRPSVGAFNPGMEDILDSAMGTNWVPEEASGEASEIPVPQGTELSPSRPGGGSMQTEPARPSNFLSASSPLPASAKGQQPADVTGTALPRVGPVRPTGQDWNHTPQKTDHPSALLRDPPEPGSPRISSLRPQGLSNPSTLSAQPQLSRSHSSGSVLPLGELEGRRSTRDRRSPAEPEGGPASEGAARPLPRFNSVPLTDTGHERQSEGSFSPQLQESVFHLLVPSVILVLLAVGGLLFYRWRRRSHQEPQRADSPLEQPEGSPLTQDDRQVELPV
On to B5, for which the “induction of the differentiation of preosteoclasts into osteoclasts” value in the assay with preosteoclasts [1] was “induce the differentiation of preosteoclasts into osteoclasts”. Further, the “ability for inducing the differentiation” value in the assay with preosteoclasts [2] was “do not have an ability for inducing the differentiation of preosteoclasts; also recorded: does not effect to the differentiation”.

B6: IL-7: recombinant human IL-7 (Genzyme) (protein, UniProt P13232 26-177, looked up)
Interleukin-7: DCDIEGKDGKQYESVLMVSIDQLLDSMKEIGSNCLNNEFNFFKRHICDANKEGMFLFRAARKLRQFLKMNSTGDFDLHLLKVSEGTTILLNCTGQVKGRKPAALGEAQPTKSLEENKSLKEQKKLNDLCFLKRLLQEIKTCWNKILMGTKEH
With B6, the “ability for inducing the differentiation” value in the assay with preosteoclasts [2] was “have an ability for inducing the differentiation of preosteoclasts”.
